The values that follow come from US20260151519A1 (AKTIS ONCOLOGY, published 2026).

Bridges are numbered along the chain shown (N, C = ends). Primed or numbered codes have the meaning given here. Where no end group is shown, it is not given here. [ ]: non-standard residue; d: D form. The star is where a group is joined. DOTA = O=C(O)CN1CCN(CC(=O)O)CCN(CC(=O)*)CCN(CC(=O)O)CC1; Biotin = O=C1N[C@H]2[C@H](CS[C@H]2CCCCC(=O)*)N1; Arg(Me2s) = CN=C(NC)NCCC[C@H](N)C(=O)O; PEG4″ = 4(ethylene glycol); PEG4′ = not defined here

As a reminder, the Kd is the constant that tells how readily two partners part at equilibrium. In general, koff refers to a measure of how fast the partners let go of each other. Lower therefore signals a long-lived complex. As a reminder, the Ki is a dissociation constant, usually derived from enzyme kinetics or from competition with a known ligand.

Experiment [1] concerns the target T1, Human Nectin-4 (human, UniProt Q96NY8 32-349, limits assumed).
T1 construct: Protein immobilised on the SPR chip; also called target protein
T1 sequence: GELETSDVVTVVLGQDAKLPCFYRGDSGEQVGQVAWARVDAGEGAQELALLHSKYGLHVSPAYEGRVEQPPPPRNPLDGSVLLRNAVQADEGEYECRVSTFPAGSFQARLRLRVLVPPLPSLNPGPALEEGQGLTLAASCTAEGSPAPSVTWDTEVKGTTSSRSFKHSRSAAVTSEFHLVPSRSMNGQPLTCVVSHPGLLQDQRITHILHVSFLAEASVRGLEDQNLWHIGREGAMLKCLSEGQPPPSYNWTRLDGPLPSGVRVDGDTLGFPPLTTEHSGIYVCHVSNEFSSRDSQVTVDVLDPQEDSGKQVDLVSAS
In words: Table 2B (DELFIA or SPR).

Experiment [2] concerns the target T2, Murine Nectin-4 (mouse, UniProt Q8R007 31-347, limits assumed).
T2 construct: Protein immobilised on the SPR chip; also called mouse Nectin-4
T2 sequence: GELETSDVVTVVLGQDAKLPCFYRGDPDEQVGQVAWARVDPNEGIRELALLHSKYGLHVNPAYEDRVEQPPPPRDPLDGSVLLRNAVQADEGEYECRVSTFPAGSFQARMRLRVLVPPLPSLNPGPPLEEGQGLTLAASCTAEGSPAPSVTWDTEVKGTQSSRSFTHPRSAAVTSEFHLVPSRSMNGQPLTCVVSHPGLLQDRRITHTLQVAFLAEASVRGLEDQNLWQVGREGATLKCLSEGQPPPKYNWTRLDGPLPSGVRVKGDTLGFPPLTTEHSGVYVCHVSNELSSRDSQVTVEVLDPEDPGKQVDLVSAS
In words: SPR, Biacore, 1:1 model, 25 C. How it is done:
(§1) Peptide binding affinity to the target protein was measured by SPR using an SPR machine, such as a Biacore T200 instrument. The target protein was covalently coupled to a Biacore chip surface using free amine-coupling chemistry (NHS/EDC) and all uncoupled sites were blocked with ethanolamine. Free peptides were flowed over the target protein surface in increasing concentrations to measure association (Kₐ, 1/Ms⁻¹)) and dissociation (Kd, s⁻¹) to calculate the dissociation equilibrium constant (KD) using an appropriate binding model (see, e.g., Nikolas Stroth, J Biol Methods. 2016; 3 (1)).
(§2) In FIGS. 1A, 1B, 2A, and 2B, lines on graphs are labeled from top to bottom, beginning with letter “a,” and the corresponding concentration is noted to the right of the figure.
(In general: Surface plasmon resonance follows binding to a sensor surface in real time, without labels.)

Experiment [3] deals with T1, Human Nectin-4. In words: SPR, Biacore, 1:1 model, 25 C. How it is done:
as §1, §2

Experiment [4] has as its target T3, Human Nectin-4 expressed on cells (human, UniProt Q96NY8 32-510).
T3 construct: Endogenous on HT-1376 cells; also called endogenous Nectin-4 on HT-1376 cells; cell surface Nectin-4
T3 sequence: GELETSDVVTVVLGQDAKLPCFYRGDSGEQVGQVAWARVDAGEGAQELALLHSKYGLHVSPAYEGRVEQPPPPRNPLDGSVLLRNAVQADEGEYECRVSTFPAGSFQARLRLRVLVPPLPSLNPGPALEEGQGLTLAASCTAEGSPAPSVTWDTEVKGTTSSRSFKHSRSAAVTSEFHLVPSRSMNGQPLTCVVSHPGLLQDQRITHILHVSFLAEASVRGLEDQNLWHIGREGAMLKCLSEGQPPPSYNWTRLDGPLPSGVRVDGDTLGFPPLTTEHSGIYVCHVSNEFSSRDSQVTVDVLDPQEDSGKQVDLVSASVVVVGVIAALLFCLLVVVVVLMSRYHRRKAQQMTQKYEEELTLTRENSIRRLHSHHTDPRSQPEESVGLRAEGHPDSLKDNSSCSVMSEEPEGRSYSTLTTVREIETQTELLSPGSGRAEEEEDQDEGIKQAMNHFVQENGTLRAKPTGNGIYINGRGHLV
In words: radioligand binding, 177Lu-labelled compound, HT-1376 cells. How it is done: On the day of assay, culture medium was removed and PBS was added to cells. Association kinetics were measured at three concentrations of radioligand, and this was performed by the addition of lutetium-177 radioconjugates to cells at various time points from 1 to 60 minutes.

Experiment [5] addresses T3, Human Nectin-4 expressed on cells. In words: DELFIA whole-cell competition against a europium-chelate miniprotein. As to the method: A whole cell binding assay was used to estimate the equilibrium binding affinity (KD) or binding inhibition constant (Kᵢ) of miniprotein ligands to cells expressing a target of interest. Cells were dispensed into a 384-well plate and incubated at 37° C. in 5% CO₂ overnight. The next day cells were gently washed once in assay buffer prior to addition of europium chelated ligand. […] For Kᵢ determination, a single concentration (KD equivalent concentration) of europium-chelate miniprotein was added to each well followed immediately by the addition of unconjugated competing ligand over 12 different concentrations ranging from 100 times below and above expected Kᵢ values as before. […] Cells were then washed three times at room temperature with 1×PBS followed by the addition of 2 M HCl and incubated for two h at 37° C. Following this step, 2 M NaOH and fluorescent inducer solution were added to each well and incubated for 30 minutes at room temperature according to the manufacturer's protocol (Perkin-ELMER DELFIA assay). Plates were read on an Envision plate reader and a curve-fitting model was applied to estimate KD and Kᵢ values using GraphPad Prism software.

Experiment [6] has as its target T1, Human Nectin-4. In words: SPR, Biacore T200, target immobilised, 1:1 model. As to the method:
Surface plasmon resonance (SPR) analyses were performed using Biacore T200 (GE Healthcare). Target protein (“ligand”) was immobilized to a CM5 Series S sensor chip (Cytiva) using amine-coupling chemistry. Running buffer was 0.05% surfactant P20 in HEPES buffered saline (HBS-P), pH 7.4 (Cytiva). Immobilization was performed at 25° C. Carboxyl groups in each flow cell were activated using a 1:1 mixture of 0.4 M 1-ethyl-3-(3-dimethylaminopropyl)-carbodiimide in water (EDC) and 0.1 M N-hydroxysuccinimide in water (NHS) for 7 minutes. The ligand was prepared in 10 mM sodium acetate pH 5 (Cytiva). Pulsatile injections were made to target a specific immobilization level. Any remaining amine-reactive esters on the chip surface were blocked with a 7-minute injection of 1 M ethanolamine, pH 8.5. Three 10-second pulses of 50 mM sodium hydroxide were then made to remove any unbound ligand. Reference cells were modified using amine coupling chemistry, omitting ligand injection.
Increase in signal (RU) is proportional to an increase in binding events between the analyte and ligand surface. The injection was then stopped, and dissociation was measured. […] Measured association (kₐ, 1/Ms⁻¹) and dissociation (kd, s⁻¹) were fit to a 1:1 binding model to calculate a dissociation equilibrium constant, KD(M) for each analyte.

B1: C9 (designed binder)
chain: Ac-CEYDEEFFAGLKRLRGGDICYYIKKKFDKVPDLCIEEILDKLGC-OH
modifications: disulfide 1-34, 20-44
Turning to B1, the Kd in experiment [1] is 7.5 nM; in experiment [2], 7.83 nM; in experiment [3] it was 7.5 nM. Moreover, the koff in experiment [2] was 0.0213 s⁻¹; in experiment [3], 0.0227 s⁻¹.

B2: C12 (designed binder)
chain: {DOTA-PEG4″}-CEYDEEFFAGLKRLRGGDICYYIKKKFDKVPDLCIEEILDKLGC-OH
modifications: disulfide 1-34, 20-44
Regarding B2, the Kd in experiment [1] was determined as 10.5 nM; in experiment [2], 2.94 nM. The koff in experiment [2] was 0.0262 s⁻¹; in experiment [3] it was 0.017 s⁻¹.

B3: C91 (designed binder)
chain: {DOTA-PEG4″}-CEYDEEFFAGLKRLRGGDICYYIKKKFDKVPDLCIEEILDKLGC-OH
modifications: disulfide 1-34, 20-44; also: 138La complex of DOTA
With B3, in experiment [2], the Kd amounted to 24.6 nM and the koff worked out at 0.0282 s⁻¹. In experiment [3], this molecule yielded a Kd of 17.9 nM and a koff of 0.0297 s⁻¹.

B4: C82 (designed binder)
chain: {DOTA-PEG4″}-CEYDEEFFTALKRLRGGDICYYIKKKFKKVPKLCIEEILDKLGC-NH2
modifications: disulfide 1-34, 20-44; also: 177Lu-labelled in radioligand assay
For the molecule B4, binding in experiment [4] was put at a Kd of 14.1 nM.

B5: C215 (designed binder)
chain: {DOTA-PEG4′}-CEYDEEFFTALKRLRGGDICYYIKKKFKKVPKLCIEEILDKLGC-NH2
modifications: cysteine pairing not given here; also: 177Lu label on DOTA
As to B5, binding in experiment [4] was put at a Kd of 5.01 nM.

B6: C214 (designed binder)
chain: {DOTA-PEG4″}-CEYDEEFFTALKRLRGGDICYYIKKKFDYLPKLCIEEILDNLGC-NH2
modifications: disulfide 1-34, 20-44; also: 177Lu-labelled in the radioligand assay
In the case of B6, the Kd in experiment [4] is 3.03 nM.

B7: C109 (designed binder)
chain: {DOTA-PEG4″}-CEYDEEFFTALKRLRGGDICYYIQASFQYLPGLCIEEILDNLGCS
modifications: disulfide 1-34, 20-44; also: 177Lu-labelled in radioligand assay
On to B7, for which, in experiment [4], the Kd was 8.72 nM.

B8: C264 (designed binder)
chain: {Biotin-PEG4″}-CEYDEQFFTALARLRGGDICEYIQARFQYLPGLCIEEILDNLGCS
modifications: disulfide 1-34, 20-44
B8 showed a Ki in experiment [5] of 0.53 nM. In addition, in experiment [6], the Kd was found to be 0.476 nM.

B9: C117 (designed binder)
chain: {DOTA-PEG4″}-CEYDEEFFTALKRLRGGDICYYIQAKFQYLPKLCIEEILDNLGCS
modifications: disulfide 1-34, 20-44; also: 177Lu-labelled in the radioligand assay
For the molecule B9, the Kd in experiment [4] came to 2.64 nM.

B10: C280 (designed binder)
chain: {Biotin-PEG4″}-CEYDEQFFTALARLRGADICEYIQARFQYLPGLCIEEILDNLGCS-OH
modifications: disulfide 1-34, 20-44
In the case of B10, the affinity in experiment [5] corresponds to a Ki of 0.54 nM.

B11: C267 (designed binder)
chain: {Biotin-PEG4″}-CEYDEQFFTALARLRGGDICEYIQA[Arg(Me2s)]FQYLPGLCIEEILDNLGCS
modifications: disulfide 1-34, 20-44
B11: the Ki in experiment [5] worked out at 0.76 nM. This molecule gave a Kd in experiment [6] of 0.586 nM.
